Blank lines part the entries; values can stand above or below the binder they belong to.
How the values were obtained:
Human SIRPβ1/DAP12 CHO [1] = molecular target: T1, Human SIRPβ1/DAP12 CHO; assay: flow cytometry, stably transfected CHO cells, antibody titrated, labelled anti-human IgG, MFI
T1 construct: also called human SIRPβ1 on CHO cells co-transfected with DAP12; copies: 1 + 2
Experimental: (§1) Selected antibodies were tested for binding to stably transfected human SIRPα, SIRPβ1 (co-transfected with DAP12), or SIRPγ Chinese hamster ovary (CHO) cells via flow cytometry. A titration of SIRP antibodies was added to the cells and detected using a fluorescently labelled secondary antibody. Graph depicts the median fluorescence intensity (MFI) at each concentration.

Human SIRPγ CHO [2] = molecular target: T2, Human SIRPγ CHO; assay: as above
T2 construct: also called human SIRPγ on CHO cells
T2 chain: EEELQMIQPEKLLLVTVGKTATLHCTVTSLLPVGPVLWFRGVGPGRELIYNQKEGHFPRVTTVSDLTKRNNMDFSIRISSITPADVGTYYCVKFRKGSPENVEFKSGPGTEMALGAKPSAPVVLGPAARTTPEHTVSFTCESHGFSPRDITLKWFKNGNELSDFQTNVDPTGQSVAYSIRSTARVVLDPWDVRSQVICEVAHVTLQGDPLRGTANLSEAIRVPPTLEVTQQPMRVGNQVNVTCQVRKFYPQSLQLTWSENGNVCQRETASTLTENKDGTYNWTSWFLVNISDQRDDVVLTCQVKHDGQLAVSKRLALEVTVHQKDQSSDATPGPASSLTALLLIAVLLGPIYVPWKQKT
Experimental: as §1

[3] = molecular target: T3, human SIRPα V1 extracellular domain, monomeric (human, UniProt P78324 31-373); assay: SPR (Biacore); antibody captured by anti-IgG on chip, monomeric SIRPα extracellular domain as analyte, 1:1 model
T3 construct: also called hSIRPα V1
Experimental: (§2) Selected antibodies were tested for their affinities to two hSIRPα variants (V1 and V2), and to cynomolgus monkey (herein referred to as “cyno”) SIRPα. The affinities of these SIRP antibodies were determined using surface plasmon resonance. The SIRP antibodies were flowed onto a chip and captured by an anti-mouse IgG or an anti-human IgG covalently coupled to the surface of the chip. A three-point titration of the extracellular binding domain of hSIRPα was performed per the manufacturer's recommended protocols.

[4] = molecular target: T4, human SIRPα V2 extracellular domain, monomeric (human, UniProt P78324 31-370); assay: as above
T4 construct: also called hSIRPα V2
Experimental: as §2

[5] = molecular target: T5, cynomolgus monkey SIRPα extracellular domain, monomeric (cynomolgus monkey, UniProt A0A2K5VYQ9 31-372); assay: as above
T5 construct: extracellular domain; also called Cyno SIRPα
Experimental: as §2

Human SIRPγ [6] = molecular target: T6, Human SIRPγ; assay: ELISA, extracellular domain coated at 1 µg/mL, purified antibody titrated, anti-human IgG, chemiluminescence
T6 construct: also called human SIRPγ extracellular domain, plate-coated
T6 chain: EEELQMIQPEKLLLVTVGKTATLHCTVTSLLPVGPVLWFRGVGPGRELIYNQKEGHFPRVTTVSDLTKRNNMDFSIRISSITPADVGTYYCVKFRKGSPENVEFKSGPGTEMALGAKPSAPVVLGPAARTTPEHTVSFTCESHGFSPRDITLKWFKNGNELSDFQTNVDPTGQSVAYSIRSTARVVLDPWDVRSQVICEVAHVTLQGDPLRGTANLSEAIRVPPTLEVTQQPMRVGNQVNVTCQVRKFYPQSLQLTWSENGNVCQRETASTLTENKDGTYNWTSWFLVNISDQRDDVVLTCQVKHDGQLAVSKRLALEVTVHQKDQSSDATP
Experimental: (§3) Select SIRP antibodies were purified by Protein G from hybridoma supernatants and analyzed in a titration via ELISA. Briefly, 1 μg/mL of extracellular domain SIRPα was coated onto high protein-binding plates and blocked. Purified antibodies were added in a titration to the coated plates. The antibodies were detected by an anti-rat IgG antibody and a chemiluminescent substrate.
FIGS. 3A-3C show binding curves of SIRP antibodies and two isotype controls with human Fc to human SIRPα V1, human SIRPβ1, human SIRPγ and cynomolgus monkey SIRPα by ELISA. […] Isotype control 1 was an unrelated human IgG1 antibody with irrelevant CDRs. Isotype control 2 was the same as isotype control 1 but contained the same amino acid substitutions in the Fc region as some of the selected SIRP antibodies for increased FcγR binding (referring to Table 11). DNA was transiently transfected into CHO cells for 7 days. Antibodies were purified by Protein A from cell supernatants and analyzed in a titration via ELISA as previously described in FIGS. 2A-2B using an anti-human IgG antibody as the detection antibody.

Human SIRPβ1 [7] = molecular target: T7, Human SIRPβ1; assay: ELISA, extracellular domain coated at 2 µg/mL, purified antibody titrated, anti-human IgG, chemiluminescence
T7 construct: also called human SIRPβ1 extracellular domain, plate-coated
T7 chain: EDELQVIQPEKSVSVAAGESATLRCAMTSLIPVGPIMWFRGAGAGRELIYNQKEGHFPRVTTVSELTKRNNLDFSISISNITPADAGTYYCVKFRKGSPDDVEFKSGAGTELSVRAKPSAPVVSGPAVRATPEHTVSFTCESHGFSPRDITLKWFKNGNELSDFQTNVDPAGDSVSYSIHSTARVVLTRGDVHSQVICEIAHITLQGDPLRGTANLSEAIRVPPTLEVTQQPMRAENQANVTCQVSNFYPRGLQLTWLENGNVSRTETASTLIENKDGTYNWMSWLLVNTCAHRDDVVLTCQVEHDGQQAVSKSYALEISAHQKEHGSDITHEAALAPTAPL

Cynomolgus Monkey SIRPβ1 = molecular target: T8, Cynomolgus Monkey SIRPβ1 (Macaca fascicularis); assay: as above
T8 construct: extracellular domain; also called cyno SIRPβ1 extracellular domain, plate-coated

[8] = molecular target: T5, cynomolgus monkey SIRPα extracellular …; assay: as above
Human SIRPγ [9] = molecular target: T6, Human SIRPγ; assay: as above
[10] = molecular target: T9, Human SIRPγ conjugated to an Fc region (human); assay: BLI blocking; 200 nM antibody pre-incubated with 20 nM SIRPγ-Fc, binding to immobilised CD47-His (competitor), % of response of SIRPγ-Fc alone
T9 construct: also called SIRPγ-Fc; SIRP-Fc; not shown: Fc region

[11] = molecular target: T10, human SIRPα V1-His monomer (human, UniProt P78324 31-373, limits assumed); assay: BLI (Octet); antibody on anti-mouse IgG capture tip, SIRP-His monomer at 100, 33.3, 11.1 nM, 1:1 fit, mean KD
T10 construct: 'SIRP-His monomer protein' of the Octet assay; also called SIRP-His; not shown: His tag
Experimental: (§4) Select SIRP antibodies were tested for their affinities to human SIRPα, SIRPβ1, and SIRPγ using a biolayer interferometry (BLI) Octet system (Pall ForteBio). Each SIRP antibody with rat or mouse Fc was immobilized on a biosensor tip by an anti-mouse IgG capture (AMC). Antibodies with human Fc were digested with gingipain K enzyme to yield monomeric F(ab′), biotinylated, then coated onto streptavidin biosensors. […] The biosensors were then exposed to wash buffer to measure off-rate kinetics. The resulting kinetic data were analyzed and fitted using a 1:1 binding model with kₒₙ and kdis fitted separately at each SIRP-His protein concentration. KD affinities were calculated as kdis to kₒₙ ratio at each concentration of SIRP-His and averaged.

human SIRPγ-His monomer = molecular target: T11, human SIRPγ-His monomer (human); assay: as above
T11 construct: 'SIRP-His monomer protein' of the Octet assay; also called SIRP-His; not shown: His tag
Experimental: as §4

Human SIRPβ1/DAP12 CHO [12] = molecular target: T1, Human SIRPβ1/DAP12 CHO; assay: flow cytometry, stably transfected CHO cells, antibody titrated, labelled anti-rat or anti-mouse IgG, MFI
Experimental: as §1

Human SIRPγ CHO [13] = molecular target: T2, Human SIRPγ CHO; assay: as above
Experimental: as §1

[14] = molecular target: T3, human SIRPα V1 extracellular domain, …; assay: ELISA, extracellular domain coated at 1 µg/mL, purified antibody titrated, anti-rat IgG, chemiluminescence
Experimental: as §3

Cynomolgus Monkey SIRPγ [15] = molecular target: T12, Cynomolgus Monkey SIRPγ (Macaca fascicularis); assay: ELISA, extracellular domain coated at 2 µg/mL, purified antibody titrated, anti-rat or anti-mouse IgG, chemiluminescence
T12 construct: extracellular domain; also called cyno SIRPγ extracellular domain, plate-coated
Experimental: as §3, with “2” for “1”, “of each of the SIRPs” for “SIRPα”, “IgG or an anti-mouse IgG” for “IgG”

Human SIRPγ [16] = molecular target: T6, Human SIRPγ; assay: as above
Experimental: as §3, with “2” for “1”, “of each of the SIRPs” for “SIRPα”, “IgG or an anti-mouse IgG” for “IgG”

[17] = molecular target: T3, human SIRPα V1 extracellular domain, …; assay: as above
Experimental: as §3, with “2” for “1”, “of each of the SIRPs” for “SIRPα”, “IgG or an anti-mouse IgG” for “IgG”

Human SIRPβ1 [18] = molecular target: T7, Human SIRPβ1; assay: ELISA, extracellular domain coated at 2 µg/mL, undiluted hybridoma supernatant, anti-rat or anti-mouse IgG, chemiluminescence
Experimental: Briefly, 2 μg/mL of the extracellular domain of each of the SIRPs was coated onto high protein-binding plates and blocked. Supernatants were added undiluted to coated plates. The antibodies were detected by anti-rat or anti-mouse IgG antibodies and a chemiluminescent substrate. […] The data depict the relative luminescence units read by a plate-reader capable of detecting chemiluminescence.

[19] = molecular target: T3, human SIRPα V1 extracellular domain, …; assay: ELISA, extracellular domain coated at 2 µg/mL, purified antibody titrated, anti-human IgG, chemiluminescence
Cynomolgus Monkey SIRPγ [20] = molecular target: T12, Cynomolgus Monkey SIRPγ; assay: as above

T1 sequence (DAP12, as listed by the source limits assumed): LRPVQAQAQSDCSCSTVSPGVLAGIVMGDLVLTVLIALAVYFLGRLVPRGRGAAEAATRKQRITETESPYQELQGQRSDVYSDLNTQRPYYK

EC50 (read off the curve) (Human SIRPβ1/DAP12 CHO [1]): ~0.4 µg/mL | EC50 (read off the curve) (Human SIRPγ CHO [2]): ~0.3 µg/mL | Kd [3]: 311 nM | Kd [4]: 373 nM | Kd [5]: 361 nM | EC50 (read off the curve) (Human SIRPγ [6]): ~0.04 µg/mL | EC50 (read off the curve) (Human SIRPβ1 [7]): ~0.04 µg/mL | EC50 (read off the curve) (Cynomolgus Monkey SIRPβ1): ~0.04 µg/mL | EC50 (read off the curve) [8]: ~0.04 µg/mL | EC50 (read off the curve) (Human SIRPγ [9]): ~0.03 µg/mL | SIRPγ-CD47 Response (%) [10]: 144%
B1: Antibody 28 (antibody, V domains shown)
VH: QVQLQESGPGLVKPSGTLSLTCAVSGGSISSSNWWSWVRQPPGKGLEWIGEIYHSGSTNYNPSLKSRVTISVDKSKNQFSLKLSSVTAADTAVYYCARRGIWFGVGPWGQGTLVTVSS
VL: DIVMTQSPLSLPVTPGEPASISCRSSQSLLHGNGFNYLDWYLQKPGQSPQLLIYLGSNRASGVPDRFTGSGSGTDFTLKISRVEAEDVGVYYCMQGLQTPRTFGQGTKVEIK

Kd [11]: 46.1 nM | Kd (human SIRPγ-His monomer): 24.1 nM | binding result (Human SIRPβ1/DAP12 CHO [12]): binds | EC50 (read off the curve) (Human SIRPγ CHO [13]): ~0.1 µg/mL | EC50 (read off the curve) [14]: ~0.05 µg/mL | EC50 (read off the curve) (Cynomolgus Monkey SIRPγ [15]): ~0.07 µg/mL | EC50 (read off the curve) (Human SIRPγ [16]): ~0.05 µg/mL | EC50 (read off the curve) [17]: ~0.06 µg/mL | binding result (Human SIRPβ1 [18]): binds | SIRPγ-CD47 Response (%) [10]: -6.94%
B2: Antibody 4 (antibody, V domains shown)
VH: QVQLQESGPGLLKPSETLSLTCAVSDYSISSGYYWGWIRQPPGKGLEWIGSIYHSGNTYYNPSLKSRVTILVDTSKNQFSLKLSSVTAADTAVYYCARDKCSTTTCSFDYWGQGTLVTVSS
VL: DIQMTQSPSSLSASVGDRVTITCQASQDFSNYLNWYQQKPGKAPKLLIYAASNLETGVPSRFSGSGSGTDFTFTISSLQPEDIAVYYCQQYDNLPYTFGQGTKLEIK
notes: Human variable region, rat IgG2b Fc; from hybridoma

EC50 (read off the curve) (Human SIRPβ1/DAP12 CHO [1]): ~0.3 µg/mL | EC50 (read off the curve) (Human SIRPγ CHO [2]): ~0.2 µg/mL | EC50 (read off the curve) (Human SIRPβ1 [7]): ~0.03 µg/mL | EC50 (read off the curve) [19]: ~0.03 µg/mL | EC50 (read off the curve) (Cynomolgus Monkey SIRPγ [20]): ~0.03 µg/mL | EC50 (read off the curve) (Human SIRPγ [9]): ~0.02 µg/mL
B3: Antibody 32 (antibody, V domains shown)
VH: QVQLQESGPGLVKPSGTLSLTCAVSGGSISSSNWWSWVRQPPGKGLEWIGEIYHSGNTNYNPSLKSRVTISVDKSKNQFSLKLSSVTAADTAVYYCAREGIEGYYFYYGMDVWGQGTTVTVSS
VL: DIQLTQSPSFLSASVGDRVTITCRASQGISGYLDWYQQKPGKAPKLLIYAASTLQRGVPSRFSGSGSGTDFNLTISSLQPEDFATYYCQQFTSDLITFGQGTRLEIK
notes: same variable regions as Antibodies 3 and 24
